Source: US20120208744A1, “ANTI-MICROBIAL AGENTS AND COMPOSITIONS AND METHODS OF PRODUCTION AND USE THEREOF” (The Penn State Research Foundation, priority 2011, published 2012)

How the values were obtained:
Format in all cases: cell-based, Escherichia coli
TonB = experiment: Proteinase K accessibility assay in spheroplasts; details: wild-type W3110 spheroplasts; pmf collapsed; 60 μM CCCP or 10 mM DNP
Source text: Proteinase K accessibility assays. For reversibility assays, spheroplasts were generated from wild-type cells (W3110) and treated with CCCP to collapse pmf. […] Samples were harvested and treated with proteinase K or left untreated. […] To re-establish pmf for the remaining sample, the proteinase K untreated, CCCP-treated spheroplasts were subsequently pelleted, washed, and resuspended in buffer without CCCP. These washed spheroplasts were divided in half. One sample was re-treated with CCCP, and one was treated with solvent only (DMSO). Both were then treated with proteinase K. As a control, whole cells were also treated with proteinase K or left untreated. All manipulations occurred at 4° C.
For standard assays, spheroplasts were prepared and treated with proteinase K as described previously (Larsen et al, 1999, Mol. Microbiol. 31, 1809-1824). The effect of protonophores was examined after treatment of spheroplasts with 60 μM carbonylcyanide-m-chlorophenylhydrazone (CCCP) or 10 mM DNP compared to an equal volume of solvent only, dimethyl sulfoxide (DMSO). After limited proteolysis, TCA precipitated samples were visualized on immunblots of 11% or 15% SDS polyacrylamide gels with TonB-specific monoclonal antibodies or ExbD-specific polyclonal antibodies, respectively. All manipulations occurred at 4° C.

TonB-ExbD complex = experiment: Formaldehyde crosslinking in spheroplasts; details: CCCP-treated W3110 spheroplasts, 60 μM
Experimental: Formaldehyde crosslinking in spheroplasts. Spheroplasts were prepared as above for standard assays and treated with DMSO solvent or 60 μM CCCP. A CCCP-treated sample was also treated with proteinase K for 15 min as described above. For formaldehyde crosslinking, spheroplasts were pelleted and resuspended in 100 mM sodium phosphate buffer, pH 6.8 containing 0.25M sucrose and 2 mM MgSO4. For CCCP-treated spheroplasts, CCCP was maintained in the crosslinking buffer. Samples were treated with 1% monomeric paraformaldehyde (inverting to mix) for 15 min at room temperature. Pellets were solubilized at 60° C. in Laemmli sample buffer.

[1] = test system: ferrichrome-mediated iron transport; experiment: [55Fe]-ferrichrome uptake, ExbD cys substitutions, with or without CuoP treatment
Experimental: Since CuoP treatment catalyzed almost 100% dimer formation for some of the cys substitutions, attempts were made to determine activity of the dimeric form. […] The amount of CuoP was reduced 10-fold to 0.03 mM and cells had to be suspended in fully supplemented M9 medium as described in Experimental Procedures.
Activity assays. Initial rates of [^55Fe]-ferrichrome uptake were determined. For assays where cultures were treated with copper-(1,10-phenanthroline)3, harvested cells were pelleted, resuspended in 1×M9 supplemented as described above (no sodium propionate added), and treated with an equal volume 0.06 mM CuoP ([final] 0.03 mM) or 0.5 mM sodium phosphate buffer, pH 7.4 (buffer only) for 5 min, at 37° C. with aeration. Cells were pelleted, and the standard iron transport protocol was followed starting with resuspension in the assay medium.
In all assays the CuoP solution was removed and assays carried out in identical media, but the medium present during the 5 min CuoP treatment was important and differentially affected activity of a wild-type strain.

[2] = test system: ferrichrome-mediated iron transport; experiment: as above; details: 0.03 mM CuoP, cells in unsupplemented 1xM9
[3] = test system: 55Fe-ferrichrome transport; experiment: Transport of 55Fe-loaded ferrichrome (ExbD deletion variants)
Experimental: For assays in 1×M9, 37 μM Fe (proteinase K accessibility, [^55Fe]-ferrichrome uptake, formaldehyde crosslinking, and sucrose density gradient fractionation), the following percentages of arabinose were added at subculture to induce expression of ExbD variants near native levels of ExbD: pKP660=no inducer, pKP761=0.0008%, pKP760=0.0008%, pKP759=0.3% glucose (to repress basal levels of overexpression), pKP758=0.002% glucose (to repress basal levels of overexpression), pKP762=0.0006%, pKP757=0.0007%, pKP756=0.006%, pKP755=0.008%, pKP754=0.15%, pKP753=0.18%, pKP752=0.2%, pKP763=0.18%, pKP764=0.2%, pKP724=0.006%.
Activity assays: Spot titer assays were performed. Initial rates of [^55Fe]-ferrichrome uptake were determined.

[4] = CuoP-treated (0.03 mM, 5 min, supplemented M9)

Molecule | TonB conformation (proteinase K sensitivity) after protonophore treatment (TonB) | activity: iron transport relative to wild-type ExbD [1, 4] [%] | activity: iron transport relative to wild-type ExbD ([1]; buffer only treated samples) | other results
N#CC(C#N)=NNc1cccc(Cl)c1 [CCCP, carbonylcyanide-m-chlorophenylhydrazone] | detection of the previously observed proteinase K resistant conformation of TonB |  |  | TonB-ExbD formaldehyde crosslinked complex (TonB-ExbD complex): not detected
O=[N+]([O-])c1ccc(O)c([N+](=O)[O-])c1 [DNP] | Identical results |  |  | 
copper-(1,10-phenanthroline)3 [CuoP, reference compound] |  |  |  | effect on iron transport activity of a wild-type strain ([1]; 0.03 mM CuoP in supplemented 1xM9): did not inhibit activity; iron transport of a wild-type strain remaining after CuoP treatment [2]: about 25%
ExbD Y112C: ExbD cysteine substitution Y112C (pKP1020) (protein) MAMHLNENLDDNGEMHDINVTPFIDVMLVLLIIFMVAAPLAIVDVKVNLPASTSTPQPRPEKPVYLSVKADNSMFIGNDPVTDETMITALNALTEGKKDITIFFRADKTVDCETLMKVMDTLHQAGYLKIGLVGEETAKAK |  | 5 | about 90% | activity: iron transport relative to wild-type ExbD ([1]; overexpressed ExbD cys substitution): 90%
ExbD: wild-type E. coli ExbD protein, plasmid-encoded (pKP1194, exbD in pBAD24) (protein, listed as Escherichia coli) MAMHLNENLDDNGEMHDINVTPFIDVMLVLLIIFMVAAPLAIVDVKVNLPASTSTPQPRPEKPVYLSVKADNSMFIGNDPVTDETMITALNALTEGKKDITIFFRADKTVDYETLMKVMDTLHQAGYLKIGLVGEETAKAK |  |  |  | Initial Rate of Transport ([3]; 55Fe-loaded ferrichrome, plasmid-encoded ExbD variant in strain KP1522): 672.2 ± 15.97; % Wild-type Activity ([3]; initial rate of variant strain divided by initial rate of wild-type strain x 100, strain KP1522): 100%
ExbD M116C: ExbD cysteine substitution M116C (pKP1024) (protein) MAMHLNENLDDNGEMHDINVTPFIDVMLVLLIIFMVAAPLAIVDVKVNLPASTSTPQPRPEKPVYLSVKADNSMFIGNDPVTDETMITALNALTEGKKDITIFFRADKTVDYETLCKVMDTLHQAGYLKIGLVGEETAKAK |  | 20 | about 90% | 
